Source: patent publication EP4640709A1

How the values were obtained:
[1] = target: human CX3CR1 (human) (UniProt P49238); assay: flow cytometry, chimeric CX3CR1-expressing Ba/F3 cells, 200 nM, grade vs positive antibody (+++ >70%, ++ 40-70%, + 10-40%, - <10%)
[2] = target: mouse CX3CR1 (mouse) (UniProt Q9Z0D9); assay: flow cytometry, chimeric CX3CR1-expressing Ba/F3 cells
[3] = target: rat CX3CR1 (rat) (UniProt P35411); assay: flow cytometry, CX3CR1-expressing Ba/F3 cells, 200 nM, grade vs positive antibody (+++ >70%, ++ 40-70%, + 10-40%, - <10%); this antibody is itself the 100% reference
rat CX3CR1 (rat), sequence (P35411 whole entry): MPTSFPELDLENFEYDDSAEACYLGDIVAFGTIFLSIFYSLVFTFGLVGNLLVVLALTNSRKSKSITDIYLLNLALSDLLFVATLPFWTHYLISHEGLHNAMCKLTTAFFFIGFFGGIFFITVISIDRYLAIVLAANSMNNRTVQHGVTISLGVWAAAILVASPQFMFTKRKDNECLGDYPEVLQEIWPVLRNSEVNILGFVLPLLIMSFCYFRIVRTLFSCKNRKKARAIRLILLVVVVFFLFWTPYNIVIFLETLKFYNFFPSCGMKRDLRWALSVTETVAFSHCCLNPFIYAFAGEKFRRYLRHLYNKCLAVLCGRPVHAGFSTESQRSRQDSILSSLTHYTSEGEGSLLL

[4] = target: mouse CX3CR1 (mouse) (UniProt Q9Z0D9); assay: as above
[5] = target: mouse CX3CR1 (mouse) (UniProt Q9Z0D9); assay: flow cytometry, chimeric CX3CR1-expressing Ba/F3 cells, 200 nM, grade vs positive antibody (+++ >70%, ++ 40-70%, + 10-40%, - <10%)
[6] = target: human CX3CR1 (human) (UniProt P49238); assay: flow cytometry, chimeric CX3CR1-expressing Ba/F3 cells
[7] = target: human CX3CR1 (human) (UniProt P49238); assay: flow cytometry, CX3CR1-expressing Ba/F3 cells
[8] = target: cynomolgus monkey CX3CR1 (cynomolgus monkey); assay: flow cytometry, CX3CR1-expressing Ba/F3 cells

human CX3CR1 (human), sequence (P49238 whole entry): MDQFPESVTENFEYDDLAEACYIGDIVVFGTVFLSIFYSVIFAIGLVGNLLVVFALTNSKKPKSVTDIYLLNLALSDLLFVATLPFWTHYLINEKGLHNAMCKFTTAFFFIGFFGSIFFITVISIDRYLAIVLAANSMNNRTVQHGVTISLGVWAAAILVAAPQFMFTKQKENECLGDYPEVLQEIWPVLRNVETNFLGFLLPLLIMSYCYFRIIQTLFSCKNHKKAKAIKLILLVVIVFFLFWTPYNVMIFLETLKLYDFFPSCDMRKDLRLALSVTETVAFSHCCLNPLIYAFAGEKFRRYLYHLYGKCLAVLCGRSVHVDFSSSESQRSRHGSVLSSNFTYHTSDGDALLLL
mouse CX3CR1 (mouse), sequence (Q9Z0D9 whole entry): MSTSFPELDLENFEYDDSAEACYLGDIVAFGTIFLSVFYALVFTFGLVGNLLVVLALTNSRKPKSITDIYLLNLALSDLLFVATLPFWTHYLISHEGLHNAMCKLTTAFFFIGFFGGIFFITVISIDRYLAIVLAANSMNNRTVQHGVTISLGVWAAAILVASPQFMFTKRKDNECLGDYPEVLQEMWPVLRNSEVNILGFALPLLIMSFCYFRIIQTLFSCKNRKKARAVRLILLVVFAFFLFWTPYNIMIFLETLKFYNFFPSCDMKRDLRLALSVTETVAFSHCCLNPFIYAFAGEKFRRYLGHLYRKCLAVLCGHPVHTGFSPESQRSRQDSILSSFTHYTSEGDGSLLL

Row | relative value (% reactivity, MFI) compared to positive antibody at 200 nM [1] | relative value (% reactivity, MFI) compared to positive antibody at 200 nM [2] | relative value (% reactivity, MFI) compared to positive antibody at 200 nM [3] | relative value (% reactivity, MFI) compared to positive antibody at 200 nM [4] | relative value (% reactivity, MFI) compared to positive antibody at 200 nM [5] | relative value (% reactivity, MFI) compared to positive antibody at 200 nM [6] | relative value (% reactivity, MFI) compared to positive antibody at 200 nM [7] | relative value (% reactivity, MFI) compared to positive antibody at 200 nM [8] | Substance
1 | 40 to 70% | < 10% |  |  |  |  |  |  | anti-hCX3CR1 antibody K0124E1 (Biolegend)
2 |  |  | > 70% | > 70% | > 70% | < 10% | < 10% | < 10% | anti-mouse CX3CR1 antibody SA011F11 (Biolegend)
